The source of these data is a protein production outcome set (Wang et al. 2014).

This data set is described as follows: label from the status in PepcDB records.
Regarding “MTNTLKTSYQKTPYKLGGNGPRNVGVLTEALQNIDDNLESDIYGNGAVIEDFETKIAKILGKQSAVFFPSGTMAQQIALRIWADRKENRRVAYHPLSHLEIHEQDGLKELQQITPLLLGTANQLLTIDDIKSLREPVSSVLIELPQREIGGQLPAFEELEKISEYCHEQGISLHLDGARLWEITPFYQKSAEEICALFDSVYVSFYKGIGGIAGAILAGNDDFVQEAKIWKRRYGGDLISLYPYILSADYYFEKRIGKMAEYFEAAKGLAERFNSCSGVKTVPEVPVSNMFHVYFENSADEIGAILTKIQDETGVGISGYLQEKSADVCAFEVSVGDAFAEIPAKNLELVFRCLEKEL”, the protein production result is on record as “not failed”. With “MPRRRVETRRVDHDPGKRTLLLSPVLPLPTMRTCALALLTILLGAPAHGQSTDGPWTIDHVLTQRSLTDVDIGPDGNRVLWVKETPDPEADETTSDVYLTYRDDPHGDSTATLQLTRTGDNRAPRWSPDGEHIAFLSSREQEDAAESSGTQIWRLDPRGGAPEVITSVEHGVQGARWLDDDRLLFTAREQNTRYEQHLEQTEDDADVIEDTTLFRPVRLFTVHVGTGEVTRVTNNDHQIGEFAPSPNGSRVVYSLSDSPITADARNQPHQFLLNLNTGATTEIFDEQYVDPSNFQWTADGAGFYATDSYSSDPEHEGAGITKLYHYDLAARDYQEVPLEWGDKGVGYGGYTVVDGGLHVQLADGPTFEPRFYRKTSDGWAPAEVADERLEHASAFTAGPDGETVVFSHSTADTPPSYRVGTYREGALQRDETLTTLNENLDDLPIPRAEVVRWTGANGETVNGILHYPLDYDPDRAYPMMTVLHGGPSGVDLDAWSLGWTVYAPLLAQRDAFVFRPNYHGSGHHGLDFVESIKGKYYELEVPDIVSGIDSLAAAGVVDKDSLGVMGWSNGAILTTQLTIEHPELFQVAAPGAGDVNWTSDYGNCAFGVRFDRSYFKGAPWTYTEHYIEKSPLFEMPKVQTPTLIHHGTEDRAVPYEQGWEYYRALQQIGNAPVRFLSYPGEPHGLRQLSHQRRKVAEDLKWIDTYLFGETSMQERVSERLLADDAPLSLLETAEAPARTDGHYGVRANGTLVPETVTLGDTLTVGRFEVTRAQFRAYDADFEVPSGTAEYPAHGLAADRAQAYVDWLSEQTGRDYRLPTAAELAALKAARAGPSENTPAYWAGFTPTPDEYRRLRARLAQHPTEALLMPVGSRPAGHGPNGGGPLIYDVDGNVAEWARTADGIEAQNASALTLKDPKAETAPTPPRRVTGLRVVLDR” the entry was “failed”; with “MPDVDKIIQFKREILDNLSNERLSKESFGLSMDVKLPEPGESIVPWIGEDLALDETDDELDLNFMLDALENEDKLSYSDIFNDNLPLSGSNLRVDVDSELSTLNNDFDVSSSDSFENNIDKVLDDNSIDLEIASKLDFDNLINSPELSSEELINNQGNNNFFEANNDSSVLGDSNFLQSNEFNIDDAVNGKNQTDEQSEMFVGDSLNLSADEDDFENVIDDFKFLEYDQNANFKRFEFKVNYPLFLKHLNSYPRNLRIAIAEALTKENVSRFKLEALIDLVEKNKKRLKFIAKFVGDIVGRSIKLPVIYFKAEEFSKLQQKLSYRVSRALLPLIKIASFFVVLVLVSLYLIVDVIFFYVASESKYKEGIESIYANKRDLAKSIFRDAYYIRPDDKWFINYAKAFEDVRDFDSAEEKYEELFTIEPFSKNSTNRRRKKFNKEGYISYASMKIGLGEHSEANSILDEVISYDLYDYDALVLKGDNYFKWAKTNSNYYKDSINSYTVVLSKYGQKKEILFKLFNAYIEANLDTESDNVNNFIKSNEILDIDEVVYTKYAKKLVDKYISFVTYNQRANNLAINLNYLNGQTNLLNKEFSDFKRNDGRTIFKLDNNVNMNSEIEYILRKILNKNPNYDKALFESGRYSYYIGDFKKAEVYLLKALNSFRHKNSIEDAGDKILAYKILADIYEKTRDSLRASNIIGLALSDYSFYKKHNLIKGSKEISSIYEKQGDILRSLNDFKSAISSYKLAINEGVDYPDVYYKVGLLSYRENNYDDALKYLFKVESMAGFSSSNEVLNTIALTLYKIGDFLASRSYYLRVMQNLELEKANVLNFNPKENDYHKTLLLKEIETYNNLGVVEVMASFSSIRDTKLFNSGVSNLSESAKIFDILNRDEDMVKSVKKDLASLNLRNIFKNSFSKSNVLFYENLSEKL”, “failed”. Under “MEYDEKLARFRQAHLNPFNKQSGPRQHEQGPGEEVPDVTPEEALPELPPGEPEFRCPERVMDLGLSEDHFSRPVGLFLASDVQQLRQAIEECKQVILELPEQSEKQKDAVVRLIHLRLKLQELKDPNEDEPNIRVLLEHRFYKEKSKSVKQTCDKCNTIIWGLIQTWYTCTGGPRPRRGVRNERDQSSCLRWAHIQM” stands “failed”.
